Laboratory results: paper PMC2833280

Key:
purified protein [1] = substrate: N=C(N)NCCC[C@H](NCCC(=O)O)C(=O)O; assay: purified protein; assay type: biochemical, Streptomyces clavuligerus; settings: pH 8.8, 25 °C, saturating ATP (2-4 mM), ionic strength 0.1
purified protein [2] = substrate: O=C(O)C[C@@H]1CC[C@@H](C(=O)O)N1; assay: purified protein; assay type: biochemical, Streptomyces clavuligerus; settings: pH 8.3, 25 °C, 2 mM ATP, ionic strength 0.1

Row | Protein | Km (purified protein [1]) | kcat (purified protein [1]) | kcat/Km (purified protein [1]) | Km (purified protein [2]) | kcat (purified protein [2])
1 | β-LS (β-lactam synthetase) (Streptomyces clavuligerus; Y348F) (protein) MGAPVLPAAFGFLASARTGGGRAPGPVFATRGSHTDIDTPQGERSLAATLVHAPSVAPDRAVARSLTGAPTTAVLAGEIYNRDELLSVLPAGPAPEGDAELVLRLLERYDLHAFRLVNGRFATVVRTGDRVLLATDHAGSVPLYTCVAPGEVRASTEAKALAAHRDPKGFPLADARRVAGLTGVYQVPAGAVMDIDLGSGTAVTHRTWTPGLSRRILPEGEAVAAVRAALEKAVAQRVTPGDTPLVVLSGGIDSSGVAACAHRAAGELDTVSMGTDTSNEFREARAVVDHLRTRHREITIPTTELLAQLPYAVWASESVDPDIIEYLLPLTALYRALDGPERRILTGFGADIPLGGMHREDRLPALDTVLAHDMATFDGLNEMSPVLSTLAGHWTTHPYWDREVLDLLVSLEAGLKRRHGRDKWVLRAAMADALPAETVNRPKLGVHEGSGTTSSFSRLLLDHGVAEDRVHEAKRQVVRELFDLTVGGGRHPSEVDTDDVVRSVADRTARGAA | 1400 ± 200 µM | 0.155 ± 0.007 s⁻¹ | 110 ± 20 M⁻¹ s⁻¹ |  | 
2 | β-LS (β-lactam synthetase) (Streptomyces clavuligerus; E382D) (protein) MGAPVLPAAFGFLASARTGGGRAPGPVFATRGSHTDIDTPQGERSLAATLVHAPSVAPDRAVARSLTGAPTTAVLAGEIYNRDELLSVLPAGPAPEGDAELVLRLLERYDLHAFRLVNGRFATVVRTGDRVLLATDHAGSVPLYTCVAPGEVRASTEAKALAAHRDPKGFPLADARRVAGLTGVYQVPAGAVMDIDLGSGTAVTHRTWTPGLSRRILPEGEAVAAVRAALEKAVAQRVTPGDTPLVVLSGGIDSSGVAACAHRAAGELDTVSMGTDTSNEFREARAVVDHLRTRHREITIPTTELLAQLPYAVWASESVDPDIIEYLLPLTALYRALDGPERRILTGYGADIPLGGMHREDRLPALDTVLAHDMATFDGLNDMSPVLSTLAGHWTTHPYWDREVLDLLVSLEAGLKRRHGRDKWVLRAAMADALPAETVNRPKLGVHEGSGTTSSFSRLLLDHGVAEDRVHEAKRQVVRELFDLTVGGGRHPSEVDTDDVVRSVADRTARGAA | 2800 ± 200 µM | 0.193 ± 0.006 s⁻¹ | 69 ± 6 M⁻¹ s⁻¹ |  | 
3 | β-LS (β-lactam synthetase) (Streptomyces clavuligerus; Y348A) (protein) MGAPVLPAAFGFLASARTGGGRAPGPVFATRGSHTDIDTPQGERSLAATLVHAPSVAPDRAVARSLTGAPTTAVLAGEIYNRDELLSVLPAGPAPEGDAELVLRLLERYDLHAFRLVNGRFATVVRTGDRVLLATDHAGSVPLYTCVAPGEVRASTEAKALAAHRDPKGFPLADARRVAGLTGVYQVPAGAVMDIDLGSGTAVTHRTWTPGLSRRILPEGEAVAAVRAALEKAVAQRVTPGDTPLVVLSGGIDSSGVAACAHRAAGELDTVSMGTDTSNEFREARAVVDHLRTRHREITIPTTELLAQLPYAVWASESVDPDIIEYLLPLTALYRALDGPERRILTGAGADIPLGGMHREDRLPALDTVLAHDMATFDGLNEMSPVLSTLAGHWTTHPYWDREVLDLLVSLEAGLKRRHGRDKWVLRAAMADALPAETVNRPKLGVHEGSGTTSSFSRLLLDHGVAEDRVHEAKRQVVRELFDLTVGGGRHPSEVDTDDVVRSVADRTARGAA | 190 ± 20 µM | 0.0082 ± 0.0002 s⁻¹ | 43 ± 4 M⁻¹ s⁻¹ |  | 
4 | β-LS (β-lactam synthetase) (Streptomyces clavuligerus) (protein) MGAPVLPAAFGFLASARTGGGRAPGPVFATRGSHTDIDTPQGERSLAATLVHAPSVAPDRAVARSLTGAPTTAVLAGEIYNRDELLSVLPAGPAPEGDAELVLRLLERYDLHAFRLVNGRFATVVRTGDRVLLATDHAGSVPLYTCVAPGEVRASTEAKALAAHRDPKGFPLADARRVAGLTGVYQVPAGAVMDIDLGSGTAVTHRTWTPGLSRRILPEGEAVAAVRAALEKAVAQRVTPGDTPLVVLSGGIDSSGVAACAHRAAGELDTVSMGTDTSNEFREARAVVDHLRTRHREITIPTTELLAQLPYAVWASESVDPDIIEYLLPLTALYRALDGPERRILTGYGADIPLGGMHREDRLPALDTVLAHDMATFDGLNEMSPVLSTLAGHWTTHPYWDREVLDLLVSLEAGLKRRHGRDKWVLRAAMADALPAETVNRPKLGVHEGSGTTSSFSRLLLDHGVAEDRVHEAKRQVVRELFDLTVGGGRHPSEVDTDDVVRSVADRTARGAA |  |  |  | 4900 ± 700 µM | 0.026 ± 0.002 s⁻¹
